# Patent publication US20140271603A1 (LABORATOIRE FRANCAIS DU FRACTIONNEMENT ET DES …, published 2014)
# Substitutions are numbered along the chain they refer to.
# B1: recombinant human factor H, H402 variant, produced in the HEK 293F cell line (other)
# chain: EDCNELPPRRNTEILTGSWSDQTYPEGTQAIYKCRPGYRSLGNVIMVCRKGEWVALNPLRKCQKRPCGHPGDTPFGTFTLTGGNVFEYGVKAVYTCNEGYQLLGEINYRECDTDGWTNDIPICEVVKCLPVTAPENGKIVSSAMEPDREYHFGQAVRFVCNSGYKIEGDEEMHCSDDGFWSKEKPKCVEISCKSPDVINGSPISQKIIYKENERFQYKCNMGYEYSERGDAVCTESGWRPLPSCEEKSCDNPYIPNGDYSPLRIKHRTGDEITYQCRNGFYPATRGNTAKCTSTGWIPAPRCTLKPCDYPDIKHGGLYHENMRRPYFPVAVGKYYSYYCDEHFETPSGSYWDHIHCTQDGWSPAVPCLRKCYFPYLENGYNQNHGRKFVQGKSIDVACHPGYALPKAQTTVTCMENGWSPTPRCIRVKTCSKSSIDIENGFISESQYTYALKEKAKYQCKLGYVTADGETSGSITCGKDGWSAQPTCIKSCDIPVFMNARTKNDFTWFKLNDTLDYECHDGYESNTGSTTGSIVCGYNGWSDLPICYERECELPKIDVHLVPDRKKDQYKVGEVLKFSCKPGFTIVGPNSVQCYHFGLSPDLPICKEQVQSCGPPPELLNGNVKEKTKEEYGHSEVVEYYCNPRFLMKGPNKIQCVDGEWTTLPVCIVEESTCGDIPELEHGWAQLSSPPYYYGDSVEFNCSESFTMIGHRSITCIHGVWTQLPQCVAIDKLKKCKSSNLIILEEHLKNKKEFDHNSNIRYRCRGKEGWIHTVCINGRWDPEVNCSMAQIQLCPPPPQIPNSHNMTTTLNYRDGEKVSVLCQENYLIQEGEEITCKDGRWQSIPLCVEKIPCSQPPQIEHGTINSSRSSQESYAHGTKLSYTCEGGFRISEENETTCYMGKWSSPPQCEGLPCKSPPEISHGVVAHMSDSYQYGEEVTYKCFEGFGIDGPAIAKCLGEKWSHPPSCIKTDCLSLPSFENAIPMGEKKDVYKAGEQVTYTCATYYKMDGASNVTCINSRWTGRPTCRDTSCVNPPTVQNAYIVSRQMSKYPSGERVRYQCRSPYEMFGDEEVMCLNGNWTEPPQCKDSTGKCGPPPPIDNGDITSFPLSVYAPASSVEYQCQNLYQLEGNKRITCRNGQWSEPPKCLHPCVISREIMENYNIALRWTAKQKLYSRTGESVEFVCKRGYRLSSRSHTLRTTCWDGKLEYPTCAKR
# B2: recombinant human factor H, Y402 variant, produced in the PER.C6 cell line (other)
# chain: B1 chain with H384Y
# B3: recombinant human factor H, Y402 variant, produced in the HEK 293F cell line (other)
# chain: B1 chain with H384Y
# B4: recombinant human factor H, H402 variant, produced in the PER.C6 cell line (other)
# chain: B1 chain
# Columns and labels:
# [1] = target: T1, C3 convertase of the alternative pathway (C3bBb) formed on C3b-coated wells (UniProt P01024 749-1663; P01024 23-667; P00751 260-764, limits assumed); test: cell-based or functional assay
# [2] = target: T1, C3 convertase of the alternative …; test: cell-based or functional assay; remark: listed apart in the source
# T1 sequence (P01024 749-1663 limits assumed, chain 1 of 3): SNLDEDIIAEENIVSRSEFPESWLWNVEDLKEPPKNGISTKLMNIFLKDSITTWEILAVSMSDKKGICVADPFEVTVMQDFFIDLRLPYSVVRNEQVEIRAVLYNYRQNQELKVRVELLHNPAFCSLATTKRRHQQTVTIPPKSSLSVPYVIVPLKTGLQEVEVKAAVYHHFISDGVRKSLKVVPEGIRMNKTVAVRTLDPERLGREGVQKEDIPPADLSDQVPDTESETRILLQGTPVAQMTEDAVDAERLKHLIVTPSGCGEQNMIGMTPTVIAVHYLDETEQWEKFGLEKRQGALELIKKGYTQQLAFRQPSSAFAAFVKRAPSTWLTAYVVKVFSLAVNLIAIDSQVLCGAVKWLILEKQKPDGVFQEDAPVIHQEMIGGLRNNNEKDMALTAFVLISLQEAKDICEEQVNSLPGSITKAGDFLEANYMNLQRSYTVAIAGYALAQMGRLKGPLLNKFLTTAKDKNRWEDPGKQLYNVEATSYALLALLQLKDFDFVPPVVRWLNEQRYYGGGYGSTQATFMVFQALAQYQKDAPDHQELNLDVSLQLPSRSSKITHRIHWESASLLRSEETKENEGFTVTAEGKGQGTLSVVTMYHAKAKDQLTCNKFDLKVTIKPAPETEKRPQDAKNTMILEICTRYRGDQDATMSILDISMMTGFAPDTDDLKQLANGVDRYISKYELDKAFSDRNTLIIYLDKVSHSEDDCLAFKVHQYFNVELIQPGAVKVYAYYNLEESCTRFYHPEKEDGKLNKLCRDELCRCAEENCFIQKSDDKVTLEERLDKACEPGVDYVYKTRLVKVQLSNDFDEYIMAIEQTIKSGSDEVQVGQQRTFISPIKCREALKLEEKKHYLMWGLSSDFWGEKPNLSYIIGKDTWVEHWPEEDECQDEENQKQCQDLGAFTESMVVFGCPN
# T1 sequence (P01024 23-667 limits assumed, chain 2 of 3): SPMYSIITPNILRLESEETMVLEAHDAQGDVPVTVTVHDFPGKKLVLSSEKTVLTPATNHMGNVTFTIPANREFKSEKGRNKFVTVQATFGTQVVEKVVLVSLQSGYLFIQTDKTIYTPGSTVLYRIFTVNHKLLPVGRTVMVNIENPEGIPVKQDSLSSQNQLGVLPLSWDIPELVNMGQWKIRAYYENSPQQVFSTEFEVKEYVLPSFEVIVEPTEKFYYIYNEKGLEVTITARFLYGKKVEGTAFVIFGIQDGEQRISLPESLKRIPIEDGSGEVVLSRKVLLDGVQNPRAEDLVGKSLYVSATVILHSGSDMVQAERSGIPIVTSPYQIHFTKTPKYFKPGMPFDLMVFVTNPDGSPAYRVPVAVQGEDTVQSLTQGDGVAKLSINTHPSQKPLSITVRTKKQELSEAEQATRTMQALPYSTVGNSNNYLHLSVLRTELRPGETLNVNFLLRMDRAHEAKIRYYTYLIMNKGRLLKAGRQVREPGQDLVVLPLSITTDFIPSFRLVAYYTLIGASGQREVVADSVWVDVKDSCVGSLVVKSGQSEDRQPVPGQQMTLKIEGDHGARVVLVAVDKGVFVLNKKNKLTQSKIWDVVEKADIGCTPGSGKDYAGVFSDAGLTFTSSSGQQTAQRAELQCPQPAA
# T1 sequence (P00751 260-764 limits assumed, chain 3 of 3): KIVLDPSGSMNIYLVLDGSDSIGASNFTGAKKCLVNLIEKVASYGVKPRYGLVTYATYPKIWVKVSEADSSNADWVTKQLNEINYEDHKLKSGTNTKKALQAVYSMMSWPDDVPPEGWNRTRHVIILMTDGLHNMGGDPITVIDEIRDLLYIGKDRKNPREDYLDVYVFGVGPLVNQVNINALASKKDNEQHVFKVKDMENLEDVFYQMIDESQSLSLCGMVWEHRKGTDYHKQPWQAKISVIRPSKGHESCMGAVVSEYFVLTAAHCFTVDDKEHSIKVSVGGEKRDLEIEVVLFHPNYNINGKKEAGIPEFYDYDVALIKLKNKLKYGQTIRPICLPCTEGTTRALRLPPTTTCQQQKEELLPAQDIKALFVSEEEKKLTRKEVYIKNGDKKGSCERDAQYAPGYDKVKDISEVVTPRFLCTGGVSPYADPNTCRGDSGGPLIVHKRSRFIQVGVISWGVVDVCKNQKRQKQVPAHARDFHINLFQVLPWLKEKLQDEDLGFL
binder,measurement,setting,value
B1,"IC50, acceleration of the dissociation of C3 convertase (culture supernatant HEK MD2-H402)",[1],52 ng/mL
B2,"IC50, acceleration of the dissociation of C3 convertase (sample: Purified FH PER.C6)",[2],45.1 ng/mL
same,"IC50, acceleration of the dissociation of C3 convertase (culture supernatant PERC6 MD2-Y402)",[1],48.7 ng/mL
same,"IC50, acceleration of the dissociation of C3 convertase (culture supernatant PERC6 MD3-Y402)",[1],55.9 ng/mL
B3,"IC50, acceleration of the dissociation of C3 convertase (sample: Purified FH HEK)",[2],50.6 ng/mL
same,"IC50, acceleration of the dissociation of C3 convertase (culture supernatant HEK MD1-Y402)",[1],53.8 ng/mL
same,"IC50, acceleration of the dissociation of C3 convertase (culture supernatant HEK MD2-Y402)",[1],50.7 ng/mL
same,"IC50, acceleration of the dissociation of C3 convertase (culture supernatant HEK MD3-Y402)",[1],52.8 ng/mL
B4,"IC50, acceleration of the dissociation of C3 convertase (culture supernatant PERC6 MD2-H402)",[1],54.6 ng/mL
